Assay results as given in US20140178390A1 (published 2014).

Biological target: Human CXCR7 (UniProt P25106 1-362)
Test: FACS competition with biotinylated SDF-1

Chain of Human CXCR7 (P25106 whole entry): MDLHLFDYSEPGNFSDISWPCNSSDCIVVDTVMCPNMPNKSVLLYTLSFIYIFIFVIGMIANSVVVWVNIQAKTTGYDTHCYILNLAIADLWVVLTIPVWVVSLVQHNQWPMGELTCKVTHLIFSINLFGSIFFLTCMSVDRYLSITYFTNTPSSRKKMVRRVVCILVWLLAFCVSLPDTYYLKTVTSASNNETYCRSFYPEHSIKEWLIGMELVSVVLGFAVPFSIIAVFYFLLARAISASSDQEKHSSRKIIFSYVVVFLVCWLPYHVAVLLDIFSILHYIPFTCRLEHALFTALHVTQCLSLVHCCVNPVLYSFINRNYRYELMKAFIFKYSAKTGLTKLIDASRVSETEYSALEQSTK

B1: Nanobody 07C03 with Tag-1 (VHH)
VHH: EVQLVESGGGLVQAGESLTLSCAASGRTLSAYIMGWFRQAPGKEREFVAGIWSGGYTHLADSAKGRFSISRDNAKNTVYLQMNGLKPEDTAVYYCAAGLRGRQYSNWGQGTQVTVSS
  IC50: 7.77 nM
